We go through 2 molecules from patent publication EP4063497B1.

The target of this test is IMP-4-type carbapenemase. Kind of test: indirect ELISA, plate coated with IMP-4-type carbapenemase at 0.2 ug/mL, purified antibody serially diluted from 1:1,000. As to conditions: scale: dilution factor. (An ELISA detects its analyte on a solid surface through an enzyme-linked reagent.)

B1: anti-IMP-type carbapenemase antibody 1AA4 (antibody, V domains shown)
VH: VQLVVSGGGLVNPDGSLKLSCAASGFTFSDYYMYWVRQTPEKRLEWVAIISDGGSYTYYPDSVKGRFTISRDNAKNNLYLQMSGLRSEDTAMYYCVRGSFDVWGAGTTVTVSA
VL: DIVMTQSPLTLSVTLGQPASISCRSSQSLLDSGGKTYLNWFLQRPGQSPKRLIYLVSKLDSGVPDRFTGSGSGTDFTLRISRVEAEDLGIYYCFQYTHFPQCTFGGGTTLEIKR
In the case of B1, the titer is above 640000.

B2: anti-IMP-type carbapenemase antibody AH9 (antibody, V domains shown)
VH: VKLQQSGAELVKPGASVKISCKASGYTFTDYNMDWVKQSHGKSLEWIGDINPNYDSTRYNQKFKGKATLTVDKSSSTAYMELRSLTSEDTAVYYCARDGRYAMDYWGQGTSVTVSS
VL: DIVMTQSPSSLSVSAGEKVTLTCKSSQSLLNSGHQKNYLAWYQQKPGQPPKLLIYGASTRKSGIPDRFTGSGSGTDFTLTISSVQAEDLAVYYCQNDHRYPLTFGAGTKLELKR
B2 gave a titer above 640000.
